For one data set, the system named is non-NMDA receptor. The experiment in a line: inhibition of minimal-stimulation single fiber EPSC amplitude by γ-DGG in layer 2/3 barrel cortex pyramidal neurons (brain slices). The format is cell-based, mouse. As to conditions: γ-DGG 300 μM; Ube3a (2×) transgenic vs wild-type neurons; P=0.0127, n=7-8. The protocol:
The vesicle glutamate content was estimated by the relative inhibition of mean single fiber EPSC amplitude by the fast off-rate, non-NMDA receptor blocker γ-DGG (300 μM). The higher the percentage inhibition by γ-DGG, the lower the concentration of synaptic glutamate. Detailed protocols are available in the Extended Experimental Procedures.
The vesicle glutamate content was estimated by the relative inhibition of mean single fiber EPSC amplitude by the fast off-rate, non-NMDA receptor blocker γ-DGG (300 μM). The higher the percentage inhibition by γ-DGG, the lower the concentration of synaptic glutamate (see ref. 21). To selectively stimulate a single fiber in layer 2/3 of the barrel cortex, minimal stimuli were delivered through ACSF-filled bipolar glass electrodes pulled from 2.0 mm OD dual barrel theta capillary glass (Warner Instruments). The tip of the stimulating electrodes is about 2 μm. To establish a minimal stimulation, we first sought for the highest stimulus that gave all failures. […] To acquire a reasonable number of EPSCs from 40-100 trials in both baseline and γ-DGG conditions at 0.3 Hz, we adjusted the stimulation intensity to give about 10% failures (WT: 9.7±2.4%, n=8; 1×: 9.7±3.4%, n=8; 2×: 11.6±4.6%, […]; F(2, 21)=0.106, P=0.90). Under this failure rate, the calculated quantal content was about 2. […]

For data set [1], the system named is recombinant Arc.
Data set [2] has as its system recombinant Arc. The experiment in a line: in vitro target protein degradation (ubiquitination) assay with immunoprecipitated Ube3a-FLAG. In kind it is biochemical. The note with it: FLAG antibody immunoprecipitate from Tg cortical lysate; control Wt 1.26±0.04; P=0.01; n=3 independent in vitro assays. As for the experimental part: Ube3a expression was confirmed by western blot of cortical lysates using both anti-FLAG M2 antibody (Sigma) and anti-Ube3a (BD Biosciences). The ubiquitin ligase activity of Ube3a was assayed by an in vitro target protein degradation assay. Ube3a was immunoprecipitated using anti-FLAG M2 antibodies and protein G magnetic beads (NEB) and eluted in non-denaturing conditions using a 3× FLAG peptide (Sigma). 1 μg of recombinant ARC (BD Biosciences) was added to 10 μl of immunoprecipitated Ube3a in the presence of 50 ng E1 and 100 ng UbcH7 enzymes and 4 μg HA-ubiquitin (Boston Bioproducts) as in (19). Western blots were probed with anti-ARC (Santa Cruz) and quantified using ImageJ (NIH). Detailed protocols are available in the Extended Experimental Procedures.
Cortical lysates were prepared in PBS with 1% TritonX-100 and protease inhibitors, incubated with 4 μg of anti-FLAG antibodies overnight, and with 50 μl of protein G magnetic beads (NEB) for immunoprecipitation (IP). Beads were washed 5× with PBS and Ube3a-FLAG was eluted with 3× FLAG peptide (Sigma) in 100 μl PBS, and IP success was confirmed by western blot. […]

“Also recorded” adds a separate entry of the source.

On to `N[C@H](CCC(=O)NCC(=O)O)C(=O)O` [γDGG, γ-D-glutamylglycine], for which the “Reduction of EPSC amplitude by γ-DGG” value with non-NMDA receptor was “reduce EPSC amplitude to a greater extent in Ube3a (2×) transgenic than in wild-type neurons; also recorded: increased γDGG inhibition in Ube3a transgenic mice”.
Take “FLAG-tagged full length Ube3a (transgenic mouse Ube3a with C-terminal 3×FLAG tag, immunoprecipitated from cortical lysates of transgenic mice)”: in the data set with recombinant Arc [1], the “in vitro target protein degradation assay (Arc on western blot probed with anti-ARC, quantified with ImageJ)” value was “mean±SEM Wt: 1.26±0.04 vs. Tg: 0.58±0.16; P=0.01 by t test; n=3 independent in vitro assays”.

B1: transgenic Ube3a: full-length FLAG-tagged transgenic Ube3a ubiquitin ligase immunoprecipitated from transgenic mouse cortical lysate (protein, UniProt O08759 1-870, looked up)
chain: MATACKRSPGESQSEDIEASRMKRAAAKHLIERYYHQLTEGCGNEACTNEFCASCPTFLRMDNNAAAIKALELYKINAKLCDPHPSKKGASSAYLENSKGASNNSEIKMNKKEGKDFKDVIYLTEEKVYEIYEFCRESEDYSPLIRVIGRIFSSAEALVLSFRKVKQHTKEELKSLQEKDEDKDEDEKEKAACSAAAMEEDSEASSSRMGDSSQGDNNVQKLGPDDVTVDIDAIRRVYSSLLANEKLETAFLNALVYLSPNVECDLTYHNVYTRDPNYLNLFIIVMENSNLHSPEYLEMALPLFCKAMCKLPLEAQGKLIRLWSKYSADQIRRMMETFQQLITYKVISNEFNSRNLVNDDDAIVAASKCLKMVYYANVVGGDVDTNHNEEDDEEPIPESSELTLQELLGDERRNKKGPRVDPLETELGVKTLDCRKPLISFEEFINEPLNDVLEMDKDYTFFKVETENKFSFMTCPFILNAVTKNLGLYYDNRIRMYSERRITVLYSLVQGQQLNPYLRLKVRRDHIIDDALVRLEMIAMENPADLKKQLYVEFEGEQGVDEGGVSKEFFQLVVEEIFNPDIGMFTYDEATKLFWFNPSSFETEGQFTLIGIVLGLAIYNNCILDVHFPMVVYRKLMGKKGTFRDLGDSHPVLYQSLKDLLEYEGSVEDDMMITFQISQTDLFGNPMMYDLKENGDKIPITNENRKEFVNLYSDYILNKSVEKQFKAFRRGFHMVTNESPLKYLFRPEEIELLICGSRNLDFQALEETTEYDGGYTRESVVIREFWEIVHSFTDEQKRLFLQFTTGTDRAPVGGLGKLKMIIAKNGPDTERLPTSHTCFNVLLLPEYSSKEKLKERLLKAITYAKGFGML
modifications: full-length FLAG tag
notes: full-length FLAG-tagged transgenic Ube3a ubiquitin ligase immunoprecipitated from transgenic mouse cortical lysate
As for B1, the “Recombinant Arc level after in vitro degradation (western blot, mean±SEM)” value in the data set on recombinant Arc [2] stood at 0.58±0.16.

Source of the values: US20140298494A1, “ANIMAL MODEL OF AUTISM” (Beth Israel Deaconess Medical Center, Inc., priority 2011, published 2014).
